The values below come from patent publication US20220033501A1 (SHANGHAI PHARMAEXPLORER, published 2022).

For assay [1], the target named is T1, monkey TIM-3 on CHOK1 stable cell line (CHOK1-cTIM-3) (monkey).
T1 chain: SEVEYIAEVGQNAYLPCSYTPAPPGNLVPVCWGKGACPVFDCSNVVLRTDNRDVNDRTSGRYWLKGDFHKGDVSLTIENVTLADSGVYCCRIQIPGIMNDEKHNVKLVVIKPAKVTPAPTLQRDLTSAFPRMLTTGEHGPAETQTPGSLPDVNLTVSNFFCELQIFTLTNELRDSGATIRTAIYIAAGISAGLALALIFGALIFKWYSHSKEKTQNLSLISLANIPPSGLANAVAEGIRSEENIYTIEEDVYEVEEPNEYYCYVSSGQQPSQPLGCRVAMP
Description: FACS, CHOK1-cTIM-3 cells, 0.064 nM antibody. The source says:
(§1) The pIRES plasmid containing the full-length nucleotide sequence encoding human TIM-3 as described in Example 1 was transfected into CHOK1 cell line to obtain a CHOK1 stable cell line containing human TIM-3 (herein referred to as CHOK1-hTIM-3 stable cell line). The pIRES plasmid containing the full-length gene of monkey TIM-3 was transfected into CHOK1 cell line to construct a CHOK1 stable cell line containing monkey TIM-3 (herein referred to as CHOK1-cTIM-3 stable cell line). The CHOK1-hTIM-3 stable cell line and CHOK1-cTIM-3 stable cell line were expanded to a confluence of 90% in a T-75 cell culture flask. The medium was aspirated, and the cells were washed with HBSS (Hanks' Balanced Salt Solution) 1-2 times, and then treated with an enzyme-free cell dissociation solution (Versene solution: Life technology) and the cells were collected. The cells were washed with HBSS buffer for 1-2 times. After counted, the cells were diluted with HBSS to 1-2×10⁶ cells per ml, added with 1% goat serum blocking solution, incubated on ice for 20-30 minutes, and then washed with HBSS by centrifugation 2 times. The collected cells were suspended in the FACS buffer (HBSS+1% BSA) to 2×10⁶ cells/ml, added as 100 microliters per well to a 96-well FACS reaction plate, added with 100 microliters per well of the antibody sample to be tested, incubated on ice for 1-2 hours. The plate was washed twice with the FACS buffer by centrifugation, added with 100 microliters of fluorescent (Alexa 488)-labeled secondary antibodies per well, and incubated on ice for 0.5-1.0 hours. The plate was washed 2-3 times with FACS buffer by centrifugation, added with 100 μl fixative solution (4% Paraformaldehyde) per well to suspend the cells. 5-10 minutes later, it was washed 1-2 times with FACS buffer by centrifugation. The cells were suspended with 100 microliters of FACS buffer, FACS (FACSCalibur, BD) was used for detection and the results were analyzed. The results are shown in FIGS. 7 and 8, Tables 7 and 8, wherein the IgG control is rat IgG, and the data in the table are the average fluorescence intensity values of the cell populations measured by MFI.

Assay [2] concerns the target T1, monkey TIM-3 on CHOK1 stable cell line …. The experiment in a line: FACS, CHOK1-cTIM-3 cells, 0.013 nM antibody.
From the text: as §1

The target is the same in assay [3]. Description: FACS, CHOK1-cTIM-3 cells, 0 nM antibody.
From the text: as §1

Assay [4] has the same target. Description: FACS, CHOK1-cTIM-3 cells, 200 nM antibody.
From the text: as §1

The target is the same in assay [5]. The experiment in a line: FACS, CHOK1-cTIM-3 cells, 8 nM antibody.
From the text: as §1

For assay [6] the target is unchanged. The experiment in a line: FACS, CHOK1-cTIM-3 cells, 1.6 nM antibody.
From the text: as §1

The target is the same in assay [7]. Description: FACS, CHOK1-cTIM-3 cells, 0.32 nM antibody.
From the text: as §1

Assay [8] has the same target. The experiment in a line: FACS, CHOK1-cTIM-3 cells, 40 nM antibody.
From the text: as §1

The target in assay [9] is T2, TIM-3 protein on human peripheral blood mononuclear lymphocytes (PBMC) (human, UniProt Q8TDQ0 22-301).
T2 sequence: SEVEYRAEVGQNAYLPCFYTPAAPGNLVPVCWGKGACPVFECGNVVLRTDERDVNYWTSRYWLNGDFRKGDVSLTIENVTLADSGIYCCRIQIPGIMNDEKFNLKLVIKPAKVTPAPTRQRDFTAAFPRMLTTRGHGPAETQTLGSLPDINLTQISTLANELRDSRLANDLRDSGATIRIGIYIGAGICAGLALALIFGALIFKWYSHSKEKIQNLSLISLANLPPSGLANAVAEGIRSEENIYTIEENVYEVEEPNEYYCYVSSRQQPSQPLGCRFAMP
The experiment in a line: cell-based or functional assay.

The target in assay [10] is T3, murine TIM-3 protein with hFc tag (mTIM-3-hFc protein) (mouse; human, UniProt Q8VIM0 29-191).
T3 construct: Made in HEK293 cells; also called mouse TIM-3 extracellular domain protein; not shown: human IgG Fc fragment (hFc) of the pCpC vector
T3 chain: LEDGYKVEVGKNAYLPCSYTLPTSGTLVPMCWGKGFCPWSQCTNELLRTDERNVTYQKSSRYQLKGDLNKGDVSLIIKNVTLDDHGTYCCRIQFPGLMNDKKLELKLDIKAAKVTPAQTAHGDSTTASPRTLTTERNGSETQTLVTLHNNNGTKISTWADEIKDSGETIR
The experiment in a line: ELISA, coated mTIM-3-hFc.

Residue numbers refer to the chain shown, from its start.

B1: 7A4F10 TIM-3 antibody purified from hybridoma supernatant (chimeric antibody of Example 2) (antibody, V domains shown)
VH: EVQLLESGGGLVQPGGSLRLSCAASGFTFRTHLISWVRQAPGKGLEWVAAITGSGGSTYYADSVKGRFIISRDNSKNTLFLQMNSLRAEDTAVYYCAKDGGSGSYDDFWGQGTLVTVSS
VL: ETVLTQSPVTLSLSPGERATLSCRASQSVGSYLAWYQQKPGQAPRLLIYDASNRATGIPARFSGSGSGTDFTLTISSLEPEDFAVYYCQQRSNWPPTFGQGTKVEIK
B1 registered a Mean fluorescence intensity in assay [1] of 5.9. In [2], this molecule came in with a Mean fluorescence intensity of 4.1. Moreover, the Mean fluorescence intensity in [3] stood at 3.2. Moreover, the Mean fluorescence intensity in assay [4] turned out to be 147. Further, in assay [5], the Mean fluorescence intensity was 90. In assay [6], this molecule gave a Mean fluorescence intensity of 29.1. For the same molecule, the Mean fluorescence intensity in assay [7] was 11.3. Also, the Mean fluorescence intensity in assay [8] worked out at 163. For the same molecule, in assay [9], the “IFN production; antibody 0.001 µg/ml (4th head as printed), N = 1” value was found to be 672 pg/mL; the “IFN production; antibody 0.001 µg/ml (4th head as printed), N = 2” value was 719 pg/mL; the “IFN production; antibody 0.001 µg/ml (5th head as printed), N = 1” value is 666 pg/mL; the “IFN production; antibody 0.001 µg/ml (5th head as printed), N = 2” value worked out at 756 pg/mL. Moreover, in [9], the “IFN production; antibody 0.1 µg/ml, N = 1” value was 758 pg/mL; the “IFN production; antibody 0.1 µg/ml, N = 2” value was found to be 873 pg/mL; the “IFN production; antibody 1 µg/ml, N = 1” value worked out at 1010 pg/mL; the “IFN production; antibody 1 µg/ml, N = 2” value was 1160 pg/mL. Further, in [9], the “IFN production; antibody 10 µg/ml, N = 1” value worked out at 848 pg/mL and the “IFN production; antibody 10 µg/ml, N = 2” value worked out at 1010 pg/mL.

B2: 7A4F10 fully human TIM-3 antibody (human IgG4, kappa) (antibody, V domains shown)
VH: B1 VH
VL: B1 VL
Consider B2, for which the binding result in assay [10] is recorded as “no binding (tested: 66.667 nM)”.

B3: 18D2H2 TIM-3 antibody purified from hybridoma supernatant (chimeric antibody of Example 2) (antibody, V domains shown)
VH: EVQLVESGGDLVQPGGSLRLSCAASGFTFSTYWMTWVRQAPGRGLEWVANIKQDGSAKYYVDSVKGRFTLSRDDAKNSLYLQMNSLRAEDTAVYYCARGSNWFDYWGQGTLVTVSS
VL: ETVMTQSPATLSVSPGERATLSCRANQNVYSNLAWYQQKPGQAPRLLIYDASTRATGFPARFSGSGSGTEFTLTISSLQSEDFAVYYCQQYNNWPLTFGGGTKVEIK
For B3, the Mean fluorescence intensity in [1] was 6.9; in assay [2], 4.3; in assay [3] it was 3.2; in assay [4] it was 203; in [5], 92.2; in assay [6], 35.8. Further, the results for the Mean fluorescence intensity in [7] and in [8] were 14.4 and 186, respectively.

B4: 39E5H1 fully human TIM-3 antibody (human IgG4, kappa) (antibody, V domains shown)
VH: EVQLVESGGGLVQPGGSLRLSCAASGFTFSSYWMSWVRQAPGKGLEWVANIKRGGSERYYVDSVKGRFTISGDNAKNSVYLQMNSLRAEDTAVYYCARGSNWFDPWGQGTLVTVSS
VL: B3 VL with T10I, N26S, N28S, P40L, F58I, L96I, G100Q, K103R, V104L
In the case of B4, the binding result in assay [10] is on record as “no binding (tested: 66.667 nM)”.

B5: 18D2H2 fully human TIM-3 antibody (human IgG4, kappa) (antibody, V domains shown)
VH: B3 VH
VL: B3 VL
With B5, the binding result in assay [10] was “no binding (tested: 66.667 nM)”.

B6: 134H3G6 fully human TIM-3 antibody (human IgG4, kappa) (antibody, V domains shown)
VH: EVQLVESGGGLVQPGGSLRLSCAASGFTFSNSWMTWVRQAPGKGLEWVANIKQAGTEKYYVDSVKGRFTISRDNAKNSLYLQMNSLRAEDTAVYYCNSGSNYFDYWGQGTLVTVSS
VL: B3 VL with T2I, N26R, V29F, D50G, F58I
Take B6: in assay [10], the binding result is reported as “no binding (tested: 66.667 nM)”.

B7: 34B6D8 fully human TIM-3 antibody (human IgG4, kappa) (antibody, V domains shown)
VH: B4 VH with S31T, S35T, G44R, R53Q, S56G, E57D, R58K, G72T, V79L
VL: EIVMTQSPATLSMSPGERATLSCRASQSVYDNLAWYQQKPGQAPRLLIYGASTRATGIPARFSGSGSGTEFTLTISSLQSEDFALYYCQQYTHWPITFGQGTRLEIK
With B7, the binding result in assay [10] is reported as “no binding (tested: 66.667 nM)”.

B8: 57F4E5 TIM-3 antibody purified from hybridoma supernatant (chimeric antibody of Example 2) (antibody, V domains shown)
VH: EVQLVESGGGLVQPGGSLRLSCAASGFTFSSYWMSWVRQAPGKGLEWVANIKQDGSEKYYVDSVKGRFTISRDSAKNSLYLQMNSLRAEDTAMYFCARDSNFFDYWGQGTLVTVSS
VL: B3 VL with N26S, N28S, Y30S, Q38R, D50F, A51S, F58I
On to B8, for which the Mean fluorescence intensity was found to be 59.6 in assay [1]; 22.2 in assay [2]; 3.2 in assay [3]; 675 in [4]; 704 in [5]; 460 in assay [6]. In addition, the Mean fluorescence intensity in [7] was 185; in [8] it was 699.

B9: 57F4E5 fully human TIM-3 antibody (human IgG4, kappa) (antibody, V domains shown)
VH: B8 VH
VL: B3 VL with N26S, N28S, Y30S, Q38R, D50F, A51S, F58I
Turning to B9, in assay [10], the binding result is “no binding (tested: 66.667 nM)”.

B10: 215A8F2 fully human TIM-3 antibody (human IgG4, kappa) (antibody, V domains shown)
VH: QVQLQQWGAGLLKPSETLSLTCTVYGGSFSGYYWNWIRQPPGKGLEWLGEINHSGSTNYNPSLKRRVTISVDTSKNQFSLKLSSVTAADTAVYYCARVYYYGPFDFWGQGTLVTVSS
VL: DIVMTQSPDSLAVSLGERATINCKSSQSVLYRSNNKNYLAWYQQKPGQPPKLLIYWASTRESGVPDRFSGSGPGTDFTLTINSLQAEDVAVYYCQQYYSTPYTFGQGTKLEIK
On to B10, for which, in assay [10], the binding result was “no binding (tested: 66.667 nM)”.
